Experimental data: patent US20170015742A1 (published 2017)

Tests used:
[1] = biological target: T1, recombinant human PDGF-Rβ-Fc (R&D Systems #385-PR) (human, UniProt P09619 33-530); assay: competition ELISA: antibody on coated hPDGFRβ-Fc against hPDGF-BB-biotin (Example 1.27)
T1 construct: Bought reagent; also called hPDGFRβ-Fc; huPDGF Rβ; not shown: Fc part of the bought fusion protein
Method: Plates were then washed four times with wash buffer (TBS, 0.05% Tween-20) and blocked with Superblock blocking buffer (Thermo Scientific, cat#37535). During the blocking step, supernatants, antibodies and benchmark compounds were diluted in assay diluent (10% Superblock containing 0.05% surfactamps) and an eight point titration of each sample molecule was performed. The samples were added to wells and incubated for 30 minutes at 25° C. with shaking. […] This was added to wells (10 ng/mL/3.97E-10 M final concentration) and incubation was continued for 35 minutes at 25° C. with shaking. Following incubation, plates were washed four times with wash buffer. Detection reagent Streptavidin-polyHRP-40 (Fitzgerald, cat#65r-s104phrp) was diluted in assay diluent and added to plates (50 μL) for 45 minutes at 25° C. with shaking. Plates were washed four times with wash buffer and developed with the addition of Enhanced K-blue TMB substrate (Neogen, cat#308177). The reaction was stopped with 2N sulfuric acid (VWR, cat# BDH3500-1) and the absorbance was read at 450 nm-570 nm. […] Data was analyzed using Softmax Pro 4.8 software and IC₅₀ values calculated using a sigmoidal dose response (variable slope) fit in GraphPad Prism 5.

Human PDGF-BB [2] = biological target: T2, Human PDGF-BB (human, UniProt P01127 82-190); assay: Biacore SPR (Example 1.1)
T2 construct: Recombinant human PDGF-BB, a dimer of two B chains; also called huPDGF-BB; hPDGF-BB
T2 sequence (P01127 82-190 limits assumed): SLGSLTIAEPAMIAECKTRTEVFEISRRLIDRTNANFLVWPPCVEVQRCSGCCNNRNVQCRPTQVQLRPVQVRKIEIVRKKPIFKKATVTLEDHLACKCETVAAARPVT
Method: (§1) Unreacted moieties on the biosensor surface were blocked with ethanolamine. For kinetic analysis, rate equations derived from the 1:1 Langmuir binding model were fitted simultaneously to multiple antigen injections (using global fit analysis) with the use of Scrubber 2 (BioLogic Software), Biacore Biaevaluation 4.0.1 software or Biacore T100 Evaluation software. Purified antibodies or DVD-Ig molecules were diluted in running buffer for capture across goat anti-human Fc reaction surfaces. Antibodies or DVD-Ig molecules to be captured as a ligand (1 μg/ml) were injected over reaction matrices at a flow rate of 10 μl/minute. During the assay, all measurements were referenced against the capture surface alone (i.e., with no captured antibody or DVD-Ig molecule). […] The equilibrium dissociation constant KD (M) of the reaction between antibodies and the target antigen was then calculated from the kinetic rate constants by the following formula: KD=Koff/Kₒₙ. Binding was recorded as a function of time and kinetic rate constants were calculated. In this assay, on-rates as fast as 10⁶M⁻¹s⁻¹ and off-rates as slow as 10⁻⁶ s⁻¹ could be measured.

Human PDGF-BB [3] = biological target: T2, Human PDGF-BB; assay: Biacore SPR (Example 1.1); footnote **: heterogeneous off-rate
Method: as §1

[4] = biological target: T3, recombinant human VEGF-R2-Fc (R&D Systems cat#357-KD) (human, UniProt P35968 20-764); assay: direct binding ELISA on coated recombinant human VEGF-R2-Fc (Example 1.22)
T3 construct: Bought reagent; also called hVEGFR2-Fc; hVEGF-R2 (KDR/Flk-1); not shown: Fc part of the bought fusion protein
T3 sequence (P35968 20-764 limits assumed): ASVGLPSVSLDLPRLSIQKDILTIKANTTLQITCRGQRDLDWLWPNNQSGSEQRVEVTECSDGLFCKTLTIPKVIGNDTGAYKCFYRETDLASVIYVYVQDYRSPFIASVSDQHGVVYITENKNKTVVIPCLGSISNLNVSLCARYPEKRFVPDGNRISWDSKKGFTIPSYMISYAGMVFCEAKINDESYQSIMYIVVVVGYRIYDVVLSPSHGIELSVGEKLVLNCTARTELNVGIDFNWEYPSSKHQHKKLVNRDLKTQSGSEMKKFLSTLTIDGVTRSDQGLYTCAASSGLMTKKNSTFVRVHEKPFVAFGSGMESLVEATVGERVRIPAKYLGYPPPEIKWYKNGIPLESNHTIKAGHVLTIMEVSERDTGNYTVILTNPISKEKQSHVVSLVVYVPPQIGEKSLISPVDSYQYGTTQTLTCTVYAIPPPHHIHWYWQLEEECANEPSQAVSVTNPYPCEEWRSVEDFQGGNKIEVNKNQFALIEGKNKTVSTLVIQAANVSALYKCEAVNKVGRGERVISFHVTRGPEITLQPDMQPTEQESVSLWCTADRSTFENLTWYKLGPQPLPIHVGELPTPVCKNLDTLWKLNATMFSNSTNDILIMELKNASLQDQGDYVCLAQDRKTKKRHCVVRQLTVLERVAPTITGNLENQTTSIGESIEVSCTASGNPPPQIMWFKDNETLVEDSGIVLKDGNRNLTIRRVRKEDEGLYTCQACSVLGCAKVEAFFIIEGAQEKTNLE
Method: Plates were then washed four times with wash buffer (TBS, 0.05% Tween-20) and blocked with Superblock blocking buffer (Thermo Scientific, cat#37535). […] Following incubation, plates were washed four times with wash buffer. […] Plates were washed four times with wash buffer and developed with the addition of Enhanced K-blue TMB substrate (Neogen cat#308177). The reaction was stopped with 2N sulfuric acid (VWR, cat# BDH3500-1) and the absorbance was read at 450 nm-570 nm. […] Data was analyzed using Softmax Pro 4.8 software and IC₅₀ values calculated using a sigmoidal dose response (variable slope) fit in GraphPad Prism 5.

Human PDGF-BB [5] = biological target: T2, Human PDGF-BB; assay: Biacore SPR (Example 1.1); first of two rows for this clone
Method: as §1

Human PDGF-BB [6] = biological target: T2, Human PDGF-BB; assay: Biacore SPR (Example 1.1); second of two rows for this clone
Method: as §1

Human PDGF-BB [7] = biological target: T2, Human PDGF-BB; assay: competition ELISA: huPDGF-BB-biotin binding to coated huPDGF-Rβ-Fc (Example 1.13)
Method: Plates were then washed four times with wash buffer (TBS, 0.05% Tween-20) and blocked with Superblock blocking buffer (Thermo Scientific, cat#37535). During the blocking step, supernatants, antibodies, benchmark compounds or DVD-Ig were diluted in assay diluent (10% Superblock containing 0.05% surfactamps) and an eight point titration of each sample molecule was performed. […] Following incubation, plates were washed four times with wash buffer. Detection reagent Streptavidin-polyHRP-40 (Fitzgerald, cat#65r-s104phrp) was diluted in assay diluent and added to plates (50 μL) for 45 minutes at 25° C. with shaking. Plates were washed four times with wash buffer and developed with the addition of Enhanced K-blue TMB substrate (Neogen, cat#308177). The reaction was stopped with 2N sulfuric acid (VWR, cat# BDH3500-1) and the absorbance was read at 450 nm-570 nm. […] Data was analyzed using Softmax Pro 4.8 software and IC₅₀ values calculated using a sigmoidal dose response (variable slope) fit in GraphPad Prism 5.

Human PDGF-BB [8] = biological target: T2, Human PDGF-BB; assay: cell-based or functional assay

T1 sequence (P09619 33-530 limits assumed): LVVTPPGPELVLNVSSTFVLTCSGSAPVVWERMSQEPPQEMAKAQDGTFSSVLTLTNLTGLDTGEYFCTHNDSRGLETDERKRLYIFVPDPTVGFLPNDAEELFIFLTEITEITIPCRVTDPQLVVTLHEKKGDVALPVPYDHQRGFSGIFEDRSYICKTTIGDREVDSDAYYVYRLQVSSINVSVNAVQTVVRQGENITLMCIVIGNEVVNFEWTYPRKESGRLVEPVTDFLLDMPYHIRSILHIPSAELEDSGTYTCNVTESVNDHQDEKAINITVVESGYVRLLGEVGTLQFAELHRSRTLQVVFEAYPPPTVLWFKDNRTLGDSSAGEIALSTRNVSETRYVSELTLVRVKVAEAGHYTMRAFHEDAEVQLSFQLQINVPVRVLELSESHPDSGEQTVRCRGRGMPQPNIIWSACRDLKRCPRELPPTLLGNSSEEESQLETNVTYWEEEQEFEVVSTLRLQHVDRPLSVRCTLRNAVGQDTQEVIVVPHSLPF

B1: BDE-4F2-D4 (antibody, V domains shown)
VH: QVQLKESGPGLMQPSQTLSLTCTVSGFSLTNYGVSWVRQFPGKGLEWIAAISSGGSTYYNSALKSRLSISRDTSRSQVFLKMNSLLTEDTAFYFCTRVYYGSNYFDYWGPGVMVTVSS
VL: DIVMTQTPSSQAVSAGEKVTMSCKSSQSLLYGGDQKNFLAWYQQKPGQSPKLLIYLASTRESGVPDRFIGSGSGTDFTLTISSVQAEDLADYYCQQHYGYPFTFGSGTKLEIK
notes: Rat hybridoma anti-human PDGFR-B monoclonal antibody, isotype IgG2a/κ
[1]
  IC50: 0.527 nM

B2: BDI-6A3-A9 (antibody, V domains shown)
VH: EVQLVESGGGLVQPGRSLKFSCAASGFSFSDSAMAWVRQAPKKGLEWVATIIYDGSGTYYRDSVKGRFTISRDNAKSTLYLQMDSLRSEDTATYYCARLGFNYGNYGYYVMDAWGQGASVTVSS
VL: QFTLTQPKSVSGSLRNTITIPCERSSGDIGDSYVSWYQQHLGRPPINVIFADDQRPSEVSDRFSGSIDSSSNSASLTITNLQMDDEADYFCQSYDSNIDINIVFGGGTKLTVL
Human PDGF-BB [2]
  kon: ≥ 1e+07 M⁻¹ s⁻¹
Human PDGF-BB [3]
  Kd: ≤ 0.67 nM

B3: BCU-3D6-C9 (antibody, V domains shown)
VH: QIQLVQSGPELKKPGESVKISCKASEYTFTDYAIHWVKQAPGKGLKWMGWINTYTGKPTYADDFKGRFVFSLEASASTANLQISNLKNEDTATYFCARDYGGYGERRDYFDYWGQGVMVTVSS
VL: DIQMTQSPASLSASLGETVTIECRVSEDIYNGLAWYQQKPGKSPQFLIYNANRLHTGVPSRFSGSGSGTQFSLKINSLQSEDVANYFCQQYYDYPLTFGSATKLEIK
notes: Rat hybridoma anti-human VEGFR II monoclonal antibody
[4]
  binding result: binds

B4: BDI-9E8-E7 (antibody, V domains shown)
VH: QVTLKESGPGILQPSQTLSLTCTFSGFSLSTYGMGVGWIRQPSGKGLEWLANIWWDDDKYYNPSLKNRLTISKDTSNNQAFLKITNVDTADTATYYCARIESIGTTYSFDYWGQGVMVTVSS
VL: QFTLTQPKSVSGSLRSTITIPCERSSGDIGDSYVSWYQQHLGRPPINVIYADDQRPSEVSDRFSGSIDSSSNSASLTITNLQMDDEADYFCQSYDINIDIVFGGGTKLTVL
Human PDGF-BB [5]
  Kd: ≤ 0.058 pM
  kon: ≥ 1.7e+07 M⁻¹ s⁻¹
Human PDGF-BB [6]
  Kd: ≤ 0.1 pM
  kon: ≥ 1e+07 M⁻¹ s⁻¹

B5: BCU-7A6-C2 (antibody, V domains shown)
VH: EVQLVESGGGLVQPRGSLKLSCAASGFDFNSYGMSWVRQAPGKGLDLVADISSKSYNYATYYADSVKDRFTISRDDSQSMVYLQMDNLKTEDTALYYCTESLELGGAYWGQGTLVTVSS
VL: DIQMTQSPPSLSASLGDEVTITCQASQNINKFIAWYQQKPGKAPRLLIRYTSTLKSGTPSRFSGSGSGRDYSFSISNVESEDIASYYCLQYDSLPWTFGGGTKLELK
notes: Rat hybridoma anti-human VEGFR II monoclonal antibody, isotype IgG2b/κ
[4]
  binding result: binds

B6: BDE-3C9-G4 (antibody, V domains shown)
VH: EVQLVESGGGLVQPGRSLKLSCAASGFTFSNYGMAWVRQAPTQGLEWVASITNSGGNTYYRDSVKGRFTISRDSAKNTQYLQMDSLRSEDTATYFCARHTPGANYFDYWGQGLMVTVSS
VL: DIQMTQSPPSLSASLGEKVTITCQASQSIKNYIAWYQLKPGTAPRLLMRYTSTLESGTPSRFSGSGSGRDYSFSISNVESEDIASYYCVQYANLYTFGGGTKLELK
notes: Rat hybridoma anti-human PDGFR-B monoclonal antibody, isotype IgG2b/κ
[1]
  IC50: 0.832 nM

B7: BDI-1E1-D5 (antibody, V domains shown)
VH: EVKLQQSGDELVRPGASVKMSCKASGYTFTDYVMHWVKQSPGQGLEWIGTIIPLIDTTSYNQKFKGKATLTADKSSNTAYMELSRLTSEDSAVYYCARTSPYYYSSYDVMDAWGQGASVTVSS
VL: NIQLTQSPSLLSASVGDRVTLSCKGSQNINNYLAWYQQKLGEAPKLLIYKTNNLQTGIPSRFSGCGSGTDYTLTISSLHSEDLATYYCYQYDNGYTFGAGTKLELK
Human PDGF-BB [2]
  kon: ≥ 1e+07 M⁻¹ s⁻¹
Human PDGF-BB [3]
  Kd: ≤ 0.037 nM

B8: BFU-3E2-B9-B8 (antibody, V domains shown)
VH: EVQLQQSGPELQRPGASVKLSCKASGYTFTESYMYWVKQRPEQSLELIGRIDPEDGSTDYVEKFKNKATLTADTSSNTAYMQLSSLTSEDSATYFCARFGARSYFYPMDAWGQGTSVTVSS
VL: DTVLTQPPALAVSPGERVSISCRASESVSTLMHWYQQKPGQQPRLLIYGASNLESGVPARFSGSGSGTDFTLTIDPVEADDTATYFCQQSWNDPWTFGGGTKLELK
Human PDGF-BB [7]
  IC50: > 50 nM
Human PDGF-BB [2]
  Kd: ≤ 0.15 pM
  kon: ≥ 1e+07 M⁻¹ s⁻¹
Human PDGF-BB [8]
  Phospho-Tyr751/hPDGF-BB Neutralization: 0.642 nM
  huPDGF-BB Neutralization Potency (nM) in NIH-3T3 Cells: 0.247 nM

B9: BFU-11A8-D6-C3 (antibody, V domains shown)
VH: EVQLQQSGPELQRPGASVKLSCKASGYTFTESYIYWVKQRPEQSLELIGRIDPEDGSTDYVEKFKNKATLTADTSSNTAYMQLSSLTSEDTATYFCARFGARSYFYPMDAWGQGTSVTVSS
VL: DTVLTQSPTLAVSPGERVSIPCRASESVSTLMHWYQQKPGQQPRLLIYGASNLESGVPARFSGSGSGTDFTLTIDPVEADDTATYFCQQSWNDPWTFGGGTKLELK
Human PDGF-BB [7]
  IC50: 7.09 nM
Human PDGF-BB [2]
  Kd: ≤ 0.047 pM
  kon: 2.1e+07 M⁻¹ s⁻¹
Human PDGF-BB [8]
  Phospho-Tyr751/hPDGF-BB Neutralization: 0.736 nM
  huPDGF-BB Neutralization Potency (nM) in NIH-3T3 Cells: 0.344 nM
